The text below walks through data of patent publication EP4703372A1.

Read-outs that look alike come from different tables or passages of the source.

The target of assay [1] is Human PCSK9 antibody, which included human κ light chain subgroup 4 (Vκ4) (manufactured by R&D Systems, Inc.). As to the kind of experiment: ELISA, antibody immobilised, binder at 50 ug/mL, anti-6-His detection (repeats Table 17).
For assay [2], the target named is Human PDGFR alpha antibody, which included human κ light chain subgroup 3 (Vκ3) (manufactured by R&D Systems, Inc.). Described as above.
The target of assay [3] is Humira, which included human κ light chain subgroup 1 (Vκ1) (manufactured by Eisai Co., Ltd.). The assay is described as above.
Assay [4] shares this target. Put plainly: ratio of ELISA A450 on Humira (Vκ1) to A450 on Human PDGFR alpha antibody (Vκ3).
Assay [5] shares this target. As to the kind of experiment: ratio of ELISA A450 on Humira (Vκ1) to A450 on Human PCSK9 antibody (Vκ4) (repeats Table 17).
Assay [6] concerns the target Human PCSK9 antibody, which included human κ light chain subgroup 4 (Vκ4) (manufactured by R&D Systems, Inc.). As to the kind of experiment: ELISA, antibody immobilised (10 ug/mL), binder at 50 ug/mL, anti-6-His detection, blank subtracted.
Assay [7] has as its target Human PDGFR alpha antibody, which included human κ light chain subgroup 3 (Vκ3) (manufactured by R&D Systems, Inc.). Described as above.
For assay [8], the target named is Humira, which included human κ light chain subgroup 1 (Vκ1) (manufactured by Eisai Co., Ltd.). The assay is described as above.
The target is the same in assay [9]. As to the kind of experiment: ratio of ELISA A450 on Humira (Vκ1) to A450 on Human PDGFR alpha antibody (Vκ3) (repeats Table 17).
Assay [10] shares this target. Put plainly: ratio of ELISA A450 on Humira (Vκ1) to A450 on Human PCSK9 antibody (Vκ4).
Assay [11] concerns the target Herceptin, which included human κ light chain subgroup 1 (Vκ1) (manufactured by Chugai Pharmaceutical Co., Ltd.). Put plainly: ELISA, antibody immobilised (10 ug/mL), binder at 50 ug/mL, anti-6-His detection, blank subtracted.
The target of assay [12] is Human CTLA4 antibody, which included human κ light chain subgroup 3 (Vκ3) (manufactured by R&D Systems, Inc.). The description is as above.
Assay [13] deals with Herceptin, which included human κ light chain subgroup 1 (Vκ1) (manufactured by Chugai Pharmaceutical Co., Ltd.). The description is as above. This is another data set of the same source.
Assay [14] concerns the target Human CTLA4 antibody, which included human κ light chain subgroup 3 (Vκ3) (manufactured by R&D Systems, Inc.). The assay is described as above. The source holds these as a separate data set.

As for “C3 immunoglobulin-binding domain of Protein L derived from Finegoldia magna (FpL_C3), wild-type”, the absorbance at 450 nm (absorbance at 450 nm) in assay [1] is 0.91; in assay [2], 0.71; in assay [3] it was 0.82; in assay [6], 0.91; in [7] it was 0.71; in assay [8] it was 0.82. Moreover, the Absorbance ratio (Vκ1/Vκ3) in assay [4] and in assay [9] was 1.2 each time. Also, the Absorbance ratio (Vκ1/Vκ4) in assay [5] and in assay [10] was 0.9 each time.

In the case of “FpL_C3KR (all lysine residues of FpL_C3 substituted with arginine) (designed binder)”, the absorbance at 450 nm (absorbance at 450 nm) is 0.86 in [11]; 0.07 in [12]; 0.77 in [6]; 0.21 in assay [7]; 0.92 in [13]; 0.32 in [14].

In turn, “FpL_C3KR_K38E (K(R)38E introduced into FpL_C3KR) (designed binder)” registered an absorbance at 450 nm (absorbance at 450 nm) in assay [12] of 0.98.
